Measured values reported in patent publication US6936586B1, “Synthetic IL-10 analogues” (Steeno Research Group A/S, priority 1996, dated 2005).
Peptide text beside a SMILES is read from it.

B1: rhIL-10: recombinant human interleukin 10 obtained from Pepro Tech Inc. (protein)
chain: SPGQGTQSENSCTHFPGNLPNMLRDLRDAFSRVKTFFQMKDQLDNLLLKESLLEDFKGYLGCQALSEMIQFYLEEVMPQAENQDPDIKAHVNSLGENLKTLRLRLRRCHRFLPCENKSKAVEQVKNAFNKLQEKGIYKAMSEFDIFINYIEAYMTMKIRN

Tests used:
human monocytes [1] = test: Viability of cultured cells with IT9302; assay type: cell-based; settings: any concentration of IT9302 between 0.1 and 1000 ng/ml; viability always exceeded 80% after 1 day in culture
human monocytes [2] = test: Class II MHC (HLA-DR) antigen expression on IFN-γ stimulated human monocytes, flow cytometry; assay type: cell-based; settings: 10 ng/ml rhIL-10 before IFN-γ 10 ng/ml, 40 hours; unstimulated 36.8%, IFN-γ alone 58.4%
Description: HLA-DR expression on human monocytes. The monocytes were isolated from fresh, heparinized blood by adherence to plastic at 37° C. in RPMI 1640 containing 10% FCS. After incubation, the supernatant was removed, Hank's solution (4° C. with 1% FCS) was added, and the cells were detached by cooling at […] for 15 minutes and gentle banging to the table. Monocytes were stimulated (2×10^6 cells/ml) in RPMI 1640 added 2% FCS, with IFN-γ (10 ng/ml), or rhIL-10 (100, 10, 1 ng/ml) added before IFN-γ, or IT9302 (10, 1, 0.1 ng/ml) added before IFN-γ for 40 hours. The cells were detached from the wells by cooling as before. Fresh, non-fixed cells were used for surface typing by antihuman antibody for HLA-DR. The cells were resuspended in Hank's solution with 1% FCS, 1×10^6 cells/ml and FITC conjugated mouse-anti-human HLA DR, DP, […] antibodies were added (F 0817, DAKO Denmark) for 45 minutes. The cells were washed three times in Hank's solution and a FACS analysis was performed on a Coulter-Epics XL-MCL flow cytometer at a wavelength of 488 nm. Non-specific binding was determined with a non-relevant Fitch conjugated antibody (mouse anti goat DAKO F 479).
The monocytes were purified as described above and stimulated for 40 hours by IFN-γ (10 ng/ml) and/or rhIL-10 and/or IT9302 added 30 minutes before IFN-γ. […]

PBMCs = test: T cell proliferation, PHA stimulated PBMC, 3H-thymidine incorporation; assay type: cell-based, human; settings: 72 hours, 3H-thymidine last 18 hours
Description: Proliferation assay. PBMCs (2×10^5) were cultivated in 200 μl of RPMI medium with 10% FCS for 72 hours with PHA 0.5 μl/ml and rhIL-10 (1, 10, 100 ng/ml) or IT9302 (0.1, 1, 10 ng/ml) in triplets. The last 18 hours ^3H-thymidine was added with 0.5 μCi/well (Amersham, Denmark). The cells were harvested on a filter (Glass Microfibre Filters, Whatman, Cat. No. 1822 849) and scintillation fluid (Ultima, Gold MV, Packard) was added. The scintillation counting was made on Tri-Carb model 1600 TR, Packard.
PBMC's were stimulated with PHA as described above and rhIL-10 and IT9302 were added for 72 hours, and the ^3H-thymidine incorporation was measured for the last 18 hours.

human monocytes [3] = test: Determination of apoptosis in monocytes (DNA typing, propidium iodide flow cytometry); assay type: cell-based; settings: with IFN-γ stimulation; non-stimulated 6.6%, IFN-γ alone 4.1%
Description: Alternatively cells were fixed in 10% DMSO, 40% RPMI 1640 and 50% sterile FCS, and stored at −80° C. and used for DNA typing.
DNA typing of the stimulated monocytes. The fixed cells were incubated in 70 ethanol for 60 minutes and washed twice in Hank's solution. 1×10^6 cells were resuspended in 250 μl of RNase 1 μg/ml in 1.12% sodium citrate, pH 8.4 (Ribonuclease A, Pharmacia No. 17-0442-01) and incubated at 37° C. for 3 minutes. Thereafter, 250 μl of propidiumiodide (50 μg/ml in Hank's solution) was added, and cells were incubated in the dark for 30 minutes. After this the cells were washed twice in Hank's solution (Jensen et al., (110)). The DNA content was measured by flow cytometry on a Coulter-Epics XL-MCL at a wavelength of 550 nm.
The IFN-γ stimulated monocytes from above were incubated with propidium iodide and the DNA content was measured by flow cytometry. The fraction of cells expressing DNA in G1 or G2 phase of cell proliferation was measured and also the fraction expressing apoptosis.

[4] = tested on: normal human CD4+ T cells; test: IL-4 production by cultured CD4+ T lymphocytes, ECL-Western blotting; assay type: cell-based; settings: IT9302 10 ng/ml or IL-10 100 ng/ml, 3 days, cytosolic fractions
Description: CD4+ T lymphocytes were purified from heparinized normal human blood. Following Lymphoprep™ (Nycomed Pharma, Oslo, Norway) gradient centrifugation, the mononuclear cells were further sorted at 4° C. using Dynabeads (Dynal AS, Norway) coated with monoclonal anti-CD4 antibodies. The beads were detached by adding polyclonal anti-mouse antibody (Dynal AS, Norway). The purity of the positively selected cells were higher than 99% as judged by FACS analysis. […]
Cells or freeze-dried cell culture supernatants were used for IL-4 protein content determination. […] The blots were then incubated with a polyclonal goat anti-human IL-4 antibody (R&D Systems, UK) followed by a horseradish peroxidase-labelled secondary antibody (Cat. no. RPN 2106 ECL, Amersham, UK), and the immunostaining was detected by exposing a film (Kodak X-OMAT-S, USA) for 90 seconds.
Thus, CD4+ T cells, purified as described in “Methods for T cell chemotaxis”, and cultured as described in the section “Determination of IL-4 production by CD4+ T lymphocytes”, were stimulated for 3 days with IT9302 (10 ng/ml) or IL-10 (100 ng/ml). Cytosolic fractions were collected and analyzed for their IL-4 content using Western blotting (FIG. 9) and a goat anti-human IL-4 polyclonal antibody.

Molecule	effect on viability of cells (human monocytes [1])	MHC II antigen expression in the cell population (human monocytes [2])	optimum concentration for downregulation of cell proliferation (PBMCs)	fraction of monocytes expressing apoptosis (human monocytes [3])	production of IL-4 by cultured normal human CD4+ T cells [4]
CC[C@H](C)[C@H](NC(=O)[C@H](CCCCN)NC(=O)[C@H](CCSC)NC(=O)[C@@H](NC(=O)[C@H](CCSC)NC(=O)[C@H](Cc1ccc(O)cc1)NC(=O)[C@H](C)N)[C@@H](C)O)C(=O)N[C@@H](CCCNC(=N)N)C(=O)N[C@@H](CC(N)=O)C(=O)O [IT9302, NH2-Ala-Tyr-Met-Thr-Met-Lys-Ile-Arg-Asn-COOH] (H-AYMTMKIRN-OH)	did not in this or in the following examples affect viability				
B1		25.2%	100 ng/mL	10.3%	induce the production of IL-4
